B1: library; numbered along this chain (parent)
chain: MATDAALRRLLRLHRTEIAVAVDSAFPLLHALADHDVVPEDKFQETLHLKEKEGCPQAFHALLSWLLTQDSTAILDFWRVLFKDYNLERYGRLQPILDSFPKDVDLSQPRKGRKPPAVPKALVPPPRLPTKRKASEEARAAAPAALTPRGTASPGSQLKAKPPKKPESSAEQQRLPLGNGIQTMSASVQRAVAMSSGDVPGARGAVEGILIQQVFESGGSKKCIQVGGEFYTPSKFEDSGSGKNKARSSSGPKPLVRAKGAQGAAPGGGEARLGQQGSVPAPLALPSDPQLHQKNEDECAVCRDGGELICCDGCPRAFHLACLSPPLREIPSGTWRCSSCLQATVQEVQPRAEEPRPQEPPVETPLPPGLRSAGEEVRGPPGEPLAGMDTTLVYKHLPAPPSAAPLPGLDSSALHPLLCVGPEGQQNLAPGARCGVCGDGTDVLRCTHCAAAFHWRCHFPAGTSRPGTGLRCRSCSGDVTPAPVEGVLAPSPARLAPGPAKDDTASHEPALHRDDLESLLSEHTFDGILQWAIQSMARPAAPFPS

Variants of: B1
Assay: AIRE transcriptional activation functional score (insulin promoter-GFP; nonsense median 0, synonymous median 1) (normalised score); higher = higher AIRE activity (more reporter activation)
Settings: with insulin promoter-GFP reporter in HEK293
Procedure: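 Deep mutational scan of full-length human AIRE (codon-optimized cDNA, DT-POPCode NNN libraries over three regions) integrated at a Bxb1 landing pad in HEK293 cells carrying an insulin core promoter-GFP reporter at a Flp-In site. Cells were sorted for the top 10% GFP about 14 days after transfection. Variant frequency log-ratios (select vs non-select, TileSeq) were rescaled so that the nonsense median is 0 and the synonymous median is 1, then averaged over biological replicates.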

AIRE transcriptional activation functional score: each site, then its substitutions
L158: N 1.19, H 0.949, Y 1.07, I 0.959, M 0.957, K 0.11, R 0.202
P163: W 2.35, I 1.05, K 1.29, N 1.73, S 1.3, D -0.123, L 0.899, G 0.723, H 0.674, C 1.48, T 0.923, V 0.445, F 0.944, Q 1.05, Y 1.53, R 0.66, A 0.36, E 0.136, M 0.889
P166: Y 1.19, N 1.41, K -0.231, T 1.36, V 0.921, W -0.356, S 0.939, R 0.947, M 1.41, G 1.61, F 1.94, A 1.16, I 1.24, C 1.43, L 0.95, Q 1.16, E -0.713, H 1.95, D 0.983
G150: Y 2.21, W 2.25, V 0.822, R 0.148, N 0.149, P 0.879, T 0.661, S 1.63
Q157: I 0.859, A 1.13, N 0.858, Y 1.31, E 1.26, V 0.829, R 0.62, D 0.498, G 1.08, C 1.27, T 0.825, S 1.05, M 0.398, P 1.1, F 1.5, W 0.173, K 0.787, H 1.34, L 1.26
T151: C 0.915, A 1.37, D 1.27, V 1.5, S 1.01, Y 1.44, W 1.97, K 0.845, F 1.76, E 1.13, M 0.378, G 1.36, R 0.807, N 0.966, L 0.905, P 1.01, I 1.3, Q 1.28, H 1.34
K159: N 1.33, P 0.44, S 0.905, H 1.18, E 0.955, D 0.68, A 0.394, C 1.14, Q 0.00224, V 1.06, G 0.883, W 1.36, L 1.18, I 1.4, F 1.44, T 1.05, M 0.791, Y 1.33, R 1.48
S156: P 0.405, Y 0.901, A 0.976, N 1.39, I 1.37, R 0.968, E 0.377, D 0.928, W 1.64, H 0.981, L 1.55, G 0.917, K 0.349, F 1.53, T 1.75, Q 0.543, V 1.13, C 1.38, M 0.855
K161: Y 0.674, V 1.11, D 1.13, P 0.742, W 0.29, Q 0.799, L 1.14, I 1.27, M 0.88, S 0.458, H 0.866, T 0.898, A 0.612, C 1.56, G 1.56, N 0.888, E 0.442, F 1.69, R 1.55
S153: I 1.03, F 1.67, L 1.16, Y 0.691, W 1.4, Q 0.582, R 0.588, N 0.697, P 1.7, C 1.2, H 1.41, M 1.09, T 0.818, K 0.285, A 0.85, E 1.14, D 0.728, V 0.888, G 1.21
